For one test, the system named is MCF7 breast cancer cells. Description: Proliferation with ALT and Palbociclib at IC50 concentration (FIG. 9). The format is cell-based, human. Here is the method: FIGS. 9A-9B: AltBrk Synergizes with Palbociclib. ALT, Palbociclib, or Brk alone or in combination were added to or expressed in MCF7 breast cancer cells on day 2 post plating. Drugs were added at their IC50 concentration, based on previous results. ALT is expressed from an ALT-MCF7 tetracycline inducible cell line generated in the Blain lab. When tetracycline is added to the cell culture media, ALT is expressed in these cells. Vector: no tetracycline was added, so no ALT induction was detected. (FIG. 9A) Cells were harvested and counted every two days, as a measure of proliferation. Proliferation is plotted as a percentage relative to that seen in the DMSO treated control. Drugs and media were replaced every two days. (FIG. 9B) Viability was measured by trypan blue staining, and plotted relative to viability seen in the DMSO treated control.
Additional experiments were performed assessing activity of Brk in combination with Palbociclib. The data presented in FIGS. 9A and 9B reveal that Palbociclib and Brk inhibit proliferation for 2 days, and then resistance is observed (proliferation increases). Alt maintained arrest for roughly 10 days (50% inhibition of proliferation is detected). […] Alt-Brk/Palbociclib combination leads to a more durable cell cycle arrest. Mono therapy treated cells start to become resistant between day 8-10. […]

Test [1] addresses T1, Brk phosphorylation of p27 (Homo sapiens, UniProt P46527+Q13882).
T1 construct: were incubated with p27 before the addition of full length Brk and ATP; We incubated full length p27 with Src or Brk in the presence of ATP; purchased SignalChem (GST-PTK6/Brk) or Invitrogen (His-PTK6/Brk); host or cells: p27 made in house in E. coli
The experiment in a line: In vitro Brk phosphorylation of p27 with competitor, pY88/pY74 immunoblot. Type of test: biochemical. As to conditions: increasing amounts of competitor. The protocol:
FIGS. 3A-3D: SH3:PxxP interaction is required for p27 Y88 phosphorylation. (FIG. 3A) p27 and Brk were incubated with ATP and with increasing concentrations of the PxxP competitor, F58-106, followed by immunoblot analysis with pY88, pY74 and p27 antibodies. Lane 5: +equimolar amount of F58-106 and p27, lane 6: ++2.5×F58-106, lane 7: +++5×F58-106, lane 8: ++++10×F58-106. (FIG. 3B) GST-Brk, p27 and F58-106 were incubated, immunoprecipitated with GST antibodies, followed by immunblot analysis with GST or p27 antibodies. (FIG. 3C) Increasing amounts of GST-SH3, GST-SH2 or GST peptides were incubated with p27, followed by immunoblot analysis with pY88, pY74, p27 and GST antibodies. Lanes 3, 5, 7: 2.5× competitor, lanes 4, 6, […]: 5× competitor. (FIG. 3D) GST-SH3, GST-SH2 or GST peptides were incubated with p27 or ΔK1/K3, followed by metal agarose chromatography and immunoblot analysis with GST and p27 antibodies. Loading control: GST peptides added to the reaction which are not representative of association.
FIGS. 8A-8G: Alt Brk (SEQ ID NO: 17) acts as an endogenous inhibitor of Brk. […]
To directly verify this, we expressed a Flag-tagged Alt-Brk in bacteria and purified this 15 Kd protein (FIG. 8A). When p27 was incubated with Brk, Y88 and Y74 phosphorylation was detected by immunoblot analysis (FIG. 8A, lane 3). […]
A general note: In western blotting, separated proteins are transferred to a membrane and probed.

We go through 1 molecule from patent US11260100B2, “Compositions targeting the interaction domain between p27Kip1 and Brk and methods of use thereof to inhibit p27 Y phosphorylation and cdk4 activity” (The Research Foundation for the State University of New York, priority 2014, dated 2022).

T1 sequence (Q13882 whole entry): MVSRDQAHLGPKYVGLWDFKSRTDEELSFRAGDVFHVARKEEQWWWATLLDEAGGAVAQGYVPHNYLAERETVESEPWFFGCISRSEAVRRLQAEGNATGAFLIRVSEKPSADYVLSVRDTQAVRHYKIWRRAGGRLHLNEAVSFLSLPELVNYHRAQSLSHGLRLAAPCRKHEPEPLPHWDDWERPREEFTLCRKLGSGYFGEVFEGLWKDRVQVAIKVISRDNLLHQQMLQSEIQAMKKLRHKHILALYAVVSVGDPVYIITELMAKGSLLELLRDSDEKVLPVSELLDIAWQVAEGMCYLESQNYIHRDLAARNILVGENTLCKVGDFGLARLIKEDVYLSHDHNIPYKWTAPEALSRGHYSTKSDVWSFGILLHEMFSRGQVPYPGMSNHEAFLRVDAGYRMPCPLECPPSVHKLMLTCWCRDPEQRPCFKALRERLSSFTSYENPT
T1 sequence (P46527 whole entry): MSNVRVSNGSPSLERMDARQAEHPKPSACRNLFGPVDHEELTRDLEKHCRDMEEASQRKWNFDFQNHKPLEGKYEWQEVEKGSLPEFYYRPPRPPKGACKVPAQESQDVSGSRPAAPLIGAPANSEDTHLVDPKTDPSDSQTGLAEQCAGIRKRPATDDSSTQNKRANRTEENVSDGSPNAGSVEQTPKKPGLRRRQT

B1: Alt-Brk: alternative splice variant of Brk (SEQ ID NO: 17), 15 KD protein with SH3 domain, lacks kinase domain (protein, listed as Homo sapiens)
chain: MVSRDQAHLGPKYVGLWDFKSRTDEELSFRAGDVFHVARKEEQWWWATLLDEAGGAVAQGYVPHNYLAERETVESEPAGHAGCAALQDLAACRGPAAPERGGVLPQPARACELPQGPEPVPRPAAGRALPEARA
Turning to B1, the “duration of proliferation inhibition / arrest” value with MCF7 breast cancer cells (drugs at IC50 concentration, replaced every two days) is reported as “roughly 10 days”. Also, in the test on MCF7 breast cancer cells (during arrest), the inhibition of proliferation turned out to be 50%. In addition, in test [1], the “p27 Y74 phosphorylation by Brk” value is listed as “not affected” and the “p27 Y88 phosphorylation by Brk” value is “decreased”.
